Data: US20010011078A1 (University of Texas, published 2001)
One block for each molecule: values may come before it.

Key:
[1] = target: recombinant DFF40 tagged with six histidine at its C-terminus (human) (UniProt O76075); test: cell-based or functional assay
[2] = system: T1, DFF40 (40-kDa subunit of DNA fragmentation factor), native human protein
T1 sequence: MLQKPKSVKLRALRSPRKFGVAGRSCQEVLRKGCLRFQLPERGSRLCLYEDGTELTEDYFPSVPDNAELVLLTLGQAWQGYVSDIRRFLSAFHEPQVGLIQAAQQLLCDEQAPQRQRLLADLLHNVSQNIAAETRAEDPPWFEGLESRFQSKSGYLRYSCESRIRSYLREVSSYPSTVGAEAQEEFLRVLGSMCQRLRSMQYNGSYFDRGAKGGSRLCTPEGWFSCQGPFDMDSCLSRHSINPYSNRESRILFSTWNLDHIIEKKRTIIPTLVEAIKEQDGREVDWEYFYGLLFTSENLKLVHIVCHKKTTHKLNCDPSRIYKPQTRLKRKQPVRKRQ

[3] = system: T2, DFF45 (45-kDa subunit of DNA fragmentation factor), native human protein
T2 sequence: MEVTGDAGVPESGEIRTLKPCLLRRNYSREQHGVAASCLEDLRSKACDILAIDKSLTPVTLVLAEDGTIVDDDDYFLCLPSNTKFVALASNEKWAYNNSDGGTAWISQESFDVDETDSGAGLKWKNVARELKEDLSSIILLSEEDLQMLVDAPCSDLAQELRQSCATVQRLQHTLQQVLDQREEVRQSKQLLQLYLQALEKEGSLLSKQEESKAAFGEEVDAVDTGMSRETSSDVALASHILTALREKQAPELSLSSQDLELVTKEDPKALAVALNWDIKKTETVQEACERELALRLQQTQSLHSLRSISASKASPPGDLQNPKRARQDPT

[4] = system: T3, DFF45 fusion protein with a six-histidine tag at the NH2-terminus
T3 sequence: T2 sequence

[5] = system: poly(ADP-ribose) polymerase (PARP)
[6] = target: T4, DFF40 (40-kDa subunit of DNA fragmentation factor), native human protein (human, UniProt O76075 1-338); test: co-elution from the Mono Q column (last purification step), SDS-PAGE with Coomassie stain
T4 construct: Native protein purified from HeLa S-100 as part of the DFF heterodimer; also called 40-kDa polypeptide
T4 sequence: T1 sequence
Method: Ammonium sulfate (1 M) was added directly to the SP-Sepharose 0.5 M eluate. After rotating at 4° C. for 1 hr, the sample were centrifuged at 15,000 rpm for 30 min in a Sovall IA-600 rotor. The supernate was directly loaded onto a 100 ml phenyl Sepharose column equilibrated with buffer A containing 1 M ammonium sulfate and 0.5 M NaCl. The column was washed with three bed volumes of buffer A containing 1 M ammonium sulfate and 0.5 M NaCl and the bound material was eluted with two bed volumes of buffer A. […] was added to the phenyl Sepharose eluate to 50% saturation. After stirring at 4° C. for 5 hr, the sample was centrifuged at 15,000 rpm for 15 min in a Sovall JA-600 rotor. The pellet was resuspended in buffer A and loaded onto a Superalex-200 16/60 gel filtration column (Pharmacia) equilibrated with buffer A and eluted with the same buffer. Fractions of 4 ml were collected and assayed for DFF activity. The active fractions from the gel filtration column were pooled and loaded onto a MonoS 10/10 column (Pharmacia) equilibrated with buffer A. The column was washed with 50 ml of buffer A and eluted with a 200 ml 0-0.2 M linear NaCl gradient. […]
DFF activity eluted from a Mono Q column, the last step of the purification, at about 250 mM NaCl. […] No other proteins were detected in fraction containing the peak of DFF activity.

DNase activity of A-DFF40 on purified plasmid DNA [1]: > 10 fold
Molecule: histone H1

Molecule: caspase-3 (active recombinant)
cleavage of biotinylated DFF (SDS-PAGE, streptavidin-peroxidase chemiluminescence) [2]: the 40-kDa subunit remained intact
cleavage of biotinylated DFF (SDS-PAGE, streptavidin-peroxidase chemiluminescence) [3]: Incubation with caspase-3 resulted in the cleavage of the 45-kDa subunit into fragments of molecular masses of 30 kDa and 11 kDa
cleavage of the fusion protein (SDS-PAGE) [4]: Incubation of this fusion protein with caspase-3 resulted in its cleavage into three fragments of 30 kDa, 18 kDa and 11 kDa at the early time point
rate of cleavage in isolated nuclei (immunoblot) [5]: The same conclusion was obtained when the rate of cleavage of PARP was measured
time course of cleavage in isolated nuclei (immunoblot) (lamin B1): the rate of lamin B1 cleavage by caspase-3 remained the same with or without DFF

binding result [6]: binds
B1: DFF45 (45-kDa subunit of DNA fragmentation factor), native human protein (other)
chain: T2 sequence
notes: Native protein, purified from HeLa S-100 as part of the DFF heterodimer, or endogenous in 293 and U937 cell extracts; also called 45-kDa polypeptide; endogenous protein
